Data taken from patent publication US20220119492A1 (MEDIKINE, published 2022).
Bridge positions count the residues as written; N and C are the ends. Ends that are not written are not given here.

B1: SEQ ID NO 2820 (peptide)
peptide: RAWWWPCELAQVGELCDLEPSS
B2: SEQ ID NO 2775 (peptide)
peptide: AEYSGRYDCYIAKVGELCDI
B3: SEQ ID NO 2832 (peptide)
peptide: WYPCWLAQLGELCDQDWDTPS
B4: SEQ ID NO 2815 (peptide)
peptide: WFPCWLAKVGELCDRDDLAGPS
B5: SEQ ID NO 2808 (peptide)
peptide: RDWWLPCEFALIGELCDLERSW
B6: SEQ ID NO 2790 (peptide)
peptide: MFRYYPCWIASIGELCDLEWGV
modifications: disulfide 7-16 (inferred)
B7: SEQ ID NO 2805 (peptide)
peptide: NDHTAWWPCYFAQVGDLCDLV
B8: SEQ ID NO 2826 (peptide)
peptide: YRWWYPCDIAQVGELCDLDYLL
B9: SEQ ID NO 2806 (peptide)
peptide: WWPCEIAQIGELCDLEWVRHAE
modifications: disulfide 4-13 (inferred)
B10: SEQ ID NO 2828 (peptide)
peptide: WLPCWIAKIGDLCDLD
B11: SEQ ID NO 2774 (peptide)
peptide: LQIRKLWACRIDLVGPFCLL
modifications: disulfide 9-18 (inferred)
B12: SEQ ID NO 2834 (peptide)
peptide: DGWWPCWIAQVGELCDLEDPV
B13: SEQ ID NO 2791 (peptide)
peptide: ERRWYPCWLASVGELCDLDMGD
B14: SEQ ID NO 2777 (peptide)
peptide: NRWWHPCWMARVGELCDLEPDA
B15: SEQ ID NO 2829 (peptide)
peptide: SRVWHPCWLARVGELCDLEVSD
B16: SEQ ID NO 2788 (peptide)
peptide: WFPCWMAKVGDLCDVDEHQDPS
B17: SEQ ID NO 2792 (peptide)
peptide: WYPCWVAQLGELCDLE
B18: SEQ ID NO 2802 (peptide)
peptide: WYPCWVAKLGELCDLE
B19: SEQ ID NO 2784 (peptide)
peptide: PTLITWYDCLFAEVGELCDM
B20: SEQ ID NO 2773 (peptide)
peptide: FHPCWRALLGELCDLETALGPS
B21: SEQ ID NO 2801 (peptide)
peptide: TNGVLDWWPCWMAQVGELCDLD
B22: SEQ ID NO 2772 (peptide)
peptide: ARTQGWYDCLFAQVGELCDL
B23: SEQ ID NO 2778 (peptide)
peptide: WWPCWVAKLGELCDLEGDASRV
B24: SEQ ID NO 2794 (peptide)
peptide: SLAHRSWYPCWLAQVGELCDLD
B25: SEQ ID NO 2786 (peptide)
peptide: AQVWYPCWLAKVGELCDLDQWN
modifications: disulfide 7-16 (inferred)
B26: SEQ ID NO 2793 (peptide)
peptide: RWDYWPCYIAQVGELCDLEVYE
B27: SEQ ID NO 2781 (peptide)
peptide: WWPCWIAQVGELCDLEEESRES
B28: SEQ ID NO 2812 (peptide)
peptide: SGKTQMWNPCYVAKVGELCDLV
B29: SEQ ID NO 2780 (peptide)
peptide: SYMHDCFMAQVGDLCDRFIS
modifications: disulfide 6-15 (inferred)
B30: SEQ ID NO 2827 (peptide)
peptide: CYMHDCFMAQVGDLCDRFIS
modifications: not fully specified (bridges); also: disulfide between two of the three cysteines, pairing not given here
B31: SEQ ID NO 2818 (peptide)
peptide: WYPCWLAQVGELCDRE
modifications: disulfide 4-13 (inferred)
B32: SEQ ID NO 2783 (peptide)
peptide: WWPCWIADLGELCDLEGPPRGR
modifications: disulfide 4-13 (inferred)
B33: SEQ ID NO 2819 (peptide)
peptide: RGVYFPCWLAKVGDLCDSDEF
B34: SEQ ID NO 2811 (peptide)
peptide: EWFHDCFLAKVGDLCDLFLW
B35: SEQ ID NO 2864 (peptide)
peptide: KWFHDCFLAKVGDLCDLFLW
B36: SEQ ID NO 2831 (peptide)
peptide: HRGWVGWYPCEYALPGQLCDLE
B37: SEQ ID NO 2803 (peptide)
peptide: AYYPCELAQLGELCDLYNI
B38: SEQ ID NO 2799 (peptide)
peptide: WTGWSAFYPCSIANLGELCDLD
B39: SEQ ID NO 2824 (peptide)
peptide: WYPCWMAKVGELCDME
B40: SEQ ID NO 2825 (peptide)
peptide: QITDSGWYPCWVAKVGELCDMD
modifications: disulfide 10-19 (inferred)
B41: SEQ ID NO 2821 (peptide)
peptide: WYPCWLAKVGELCDQE
B42: SEQ ID NO 2798 (peptide)
peptide: EGHWYPCWIAQLGELCDLDW
B43: SEQ ID NO 2816 (peptide)
peptide: WWPCEWARIGELCDLE
modifications: disulfide 4-13 (inferred)
B44: SEQ ID NO 2789 (peptide)
peptide: MGDSSSWFPCWMAQLGELCDME
B45: SEQ ID NO 2776 (peptide)
peptide: SWRFLWQDCGRAHVGELCDL
B46: SEQ ID NO 2833 (peptide)
peptide: RVRRHSWWPCEIAVVGELCDLE
B47: SEQ ID NO 2810 (peptide)
peptide: SWHAETWYPCWLAQVGELCDLD
B48: SEQ ID NO 2830 (peptide)
peptide: WEHEFTWYPCWIAQVGELCDMD
B49: SEQ ID NO 2795 (peptide)
peptide: QNASKGWYPCWIAHVGELCDWD
B50: SEQ ID NO 2814 (peptide)
peptide: AGFRGRWWPCEYAQVGELCDLE
B51: SEQ ID NO 2782 (peptide)
peptide: KWAWNPCYIARLGELCDLVEPE
B52: SEQ ID NO 2800 (peptide)
peptide: WEKLQNWYPCWIAQMGELCDLE
B53: SEQ ID NO 2822 (peptide)
peptide: RYVPDCLKAQVGDLCDFFAW
B54: SEQ ID NO 2813 (peptide)
peptide: DKAGPNFYPCWLAHVGELCDQA
B55: SEQ ID NO 2785 (peptide)
peptide: EISNWFLDCMFADVGDLCDL
B56: SEQ ID NO 2823 (peptide)
peptide: WWPCYLAQIGELCDLV
B57: SEQ ID NO 2787 (peptide)
peptide: FGGKMDWYPCWIANLGELCDLK
B58: SEQ ID NO 2797 (peptide)
peptide: FYPCWIAFVGELCDLE
B59: SEQ ID NO 2779 (peptide)
peptide: WYPCEFAQLGELCDLLPFPYPA
B60: SEQ ID NO 2817 (peptide)
peptide: KGSSWFPCYFAQVGDLCDLY
modifications: disulfide 8-17 (inferred)
B61: SEQ ID NO 2807 (peptide)
peptide: WWPCDFAQIGELCDLGPRFTGE
B62: SEQ ID NO 2796 (peptide)
peptide: HRWYPCWLAHLGELCDLDPMS

molecular target: T1, human IL-2Rβ (CD122 protein, Fc Tag) (27-239) (human, UniProt P14784 27-239); experiment: phage ELISA competition
T1 construct: range 27-239; Bought protein; also called hu-IL-2Rβ subunit; IL-2Rβ subunit; not shown: Fc tag of the bought protein
T1 sequence (looked up): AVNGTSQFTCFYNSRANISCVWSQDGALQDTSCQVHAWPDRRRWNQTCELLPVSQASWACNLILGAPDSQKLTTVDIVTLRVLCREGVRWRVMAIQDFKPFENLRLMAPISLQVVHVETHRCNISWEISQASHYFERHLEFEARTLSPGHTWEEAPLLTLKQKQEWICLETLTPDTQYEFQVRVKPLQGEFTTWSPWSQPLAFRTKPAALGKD
In short: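 Competitive binding ELISA in which a phage tracer competes with test ligands for human IL-2Rβ-Fc; IC50 is derived from the absorbance signal across the ligand dilution series. Without washing, 50 μL of phage tracer was added for 45 min at 4° C. Bound phage was detected with TMB for 1 to 15 min at 25° C, followed by stop solution and absorbance at 450 nm.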

Binder | IC50 [µM]
B1 | < 100
B2 | < 100
B3 | < 100
B4 | < 100
B5 | < 100
B6 | < 100
B7 | < 100
B8 | < 100
B9 | < 100
B10 | < 100
B11 | < 100
B12 | < 100
B13 | < 100
B14 | < 100
B15 | < 100
B16 | < 100
B17 | < 100
B18 | < 100
B19 | < 100
B20 | < 100
B21 | < 100

Binder | IC50 [µM]
B22 | < 100
B23 | < 100
B24 | < 100
B25 | < 100
B26 | < 100
B27 | < 100
B28 | < 100
B29 | < 100
B30 | < 100
B31 | < 100
B32 | < 100
B33 | < 100
B34 | < 100
B35 | < 100
B36 | < 100
B37 | < 100
B38 | < 100
B39 | < 100
B40 | < 100
B41 | < 100
B42 | < 100

Binder | IC50 [µM]
B43 | < 100
B44 | < 100
B45 | < 100
B46 | < 100
B47 | < 100
B48 | < 100
B49 | < 100
B50 | < 100
B51 | < 100
B52 | < 100
B53 | < 100
B54 | < 100
B55 | < 100
B56 | < 100
B57 | < 100
B58 | < 100
B59 | < 100
B60 | < 100
B61 | < 100
B62 | < 100
